In the supplement of paper PMC10567573 one finds protein stability index data, which are given here for 95 variants.

B1: MMP1 (parent)
chain: YTPDLPRADVDHAIEKAFQLWSNV
B2: UFD1L (parent)
chain: EAGGRFVAFSGEGQSLRKKGRKP
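Further: lentivirally expressed fusions sorted by FACS into six bins by GFP to DsRed ratio, PSI derived from sequencing read proportions per bin multiplied by bin number.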

Variants of B1 are the subject of the first data set. Nature of the data set: protein stability index of a GFP-peptide fusion (GPS, HEK-293T) (PSI 1-6); higher = more stable. The settings on record: c terminus: a fixed tail appended.
For YTPDLPRADVDHAIEKAFQLWGNV, the protein stability index is 1.81. In the case of YTPDLPRADVDHAIEKYFQLWSNV, the protein stability index was 1.68. On the same count and under the same terms, the result for YTPDLPRADVDHAIEKKFQLWSNV reads 1.44; that for YTPDLPRADVDHAIEKGFQLWSNV, 1.93. Regarding YTPDLPRADVDHAIEKCFQLWSNV, the protein stability index was 1.83. On to YTPDLPRADVDHAIEKQFQLWSNV, for which the protein stability index stood at 1.82. Same read-out and setting: the figure for YTPDLPRADVDHAIEKMFQLWSNV is 2; for YTPDLPRADVDHAIEKRFQLWSNV it is 1.63; for YTPDLPRADVDHAIEKIFQLWSNV it is 2.15. Take YTPDLPRADVDHAIEKVFQLWSNV: the protein stability index was 2.38. The same measure, in the same setting: the result for YTPDLPRADVDHAIEKHFQLWSNV reads 2.68; that for YTPDLPRADVDHAIEKPFQLWSNV, 1.43; that for YTPDLPRADVDHAIEKTFQLWSNV, 2.54.

With YTPDLPRADVDHAIEKEFQLWSNV, the protein stability index was 1.84. Turning to YTPDLPRADVDHAIEKLFQLWSNV, the protein stability index came to 1.79.

As for YTPDLPRADVDHAIEKNFQLWSNV, the protein stability index amounted to 1.53. On the same count and under the same terms, the result for YTPDLPRADVDHAIEKDFQLWSNV reads 1.97; that for YTPDLPRADVDHAIEKSFQLWSNV, 2.11.

Consider YTPDLPRADVDHAIEKWFQLWSNV, for which the protein stability index came out at 1.25. The same measure, in the same setting: the figure for YTPDLPRADVDHAIEKFFQLWSNV is 1.97; for YTPDLPRADVDHAIEVAFQLWSNV it is 2.28. The same measure, in the same setting: the result for YTPDLPRADVDHAIEYAFQLWSNV reads 3.76; that for YTPDLPRADVDHAIEWAFQLWSNV, 3.17; that for YTPDLPRADVDHAIEKAEQLWSNV, 2.29. Same read-out and setting: the figure for YTPDLPRADVDHAIEKAPQLWSNV is 1.99; for YTPDLPRADVDHAIEKALQLWSNV it is 1.46. With YTPDLPRADVDHAIEKAYQLWSNV, the protein stability index stood at 2.11. Same read-out and setting: the result for YTPDLPRADVDHAIEKAQQLWSNV reads 1.73. As for YTPDLPRADVDHAIEKAGQLWSNV, the protein stability index amounted to 2.23. Consider YTPDLPRADVDHAIEKAKQLWSNV, for which the protein stability index was 2.22. YTPDLPRADVDHAIEKAWQLWSNV: the protein stability index came to 1.48.

Turning to YTPDLPRADVDHAIEKATQLWSNV, the protein stability index turned out to be 2.13. The same measure, in the same setting: the result for YTPDLPRADVDHAIEKAMQLWSNV reads 2.04. As for YTPDLPRADVDHAIEKADQLWSNV, the protein stability index is 2.18. Still for that read-out and setting: the result for YTPDLPRADVDHAIEKAVQLWSNV reads 2.04; that for YTPDLPRADVDHAIEKAHQLWSNV, 3.17; that for YTPDLPRADVDHAIEKACQLWSNV, 1.69. Turning to YTPDLPRADVDHAIEKANQLWSNV, the protein stability index was found to be 1.94. With YTPDLPRADVDHAIEKAAQLWSNV, the protein stability index was 1.83.

Turning to YTPDLPRADVDHAIEKARQLWSNV, the protein stability index turned out to be 1.66.

For the variant YTPDLPRADVDHAIEKAIQLWSNV, the protein stability index was 2.41. The same measure, in the same setting: the result for YTPDLPRADVDHAIEKASQLWSNV reads 1.67. Same read-out and setting: the figure for YTPDLPRADVDHAIEKAFQLWSKV is 2.28. For the variant YTPDLPRADVDHAIEKAFQLWSAV, the protein stability index was 2.05. In the case of YTPDLPRADVDHAIEKAFQLWSHV, the protein stability index is 1.69.

With YTPDLPRADVDHAIEKAFQLWSQV, the protein stability index turned out to be 1.57. Same read-out and setting: the result for YTPDLPRADVDHAIEKAFQLWSRV reads 2.01; that for YTPDLPRADVDHAIEKAFQLWSDV, 1.86; that for YTPDLPRADVDHAIEKAFQLWSMV, 2.02. For YTPDLPRADVDHAIEKAFQLWSGV, the protein stability index was 2.12. Still for that read-out and setting: the figure for YTPDLPRADVDHAIEKAFQLWSCV is 1.29; for YTPDLPRADVDHAIEKAFQLWSTV it is 2.07; for YTPDLPRADVDHAIEKAFQLWSFV it is 2.29. For the variant YTPDLPRADVDHAIEKAFQLWSVV, the protein stability index came out at 2.23.

For the variant YTPDLPRADVDHAIEKAFQLWSEV, the protein stability index came out at 2.49. As to YTPDLPRADVDHAIEKAFQLWSLV, the protein stability index worked out at 2.1. Same read-out and setting: the figure for YTPDLPRADVDHAIEKAFQLWSIV is 2.05; for YTPDLPRADVDHAIEKAFQLWSSV it is 2.28; for YTPDLPRADVDHAIEKAFQLWSYV it is 1.43.

With YTPDLPRADVDHAIEKAFQLWSWV, the protein stability index was determined as 1.97.

In another data set the parent is B2. The data set is described as above. The settings on record: c terminus: native.
Turning to EAGTRFVAFSGEGQSLRKKGRKP, the protein stability index was 1.5.

On to EAGDRFVAFSGEGQSLRKKGRKP, for which the protein stability index turned out to be 2.5. As for EAGKRFVAFSGEGQSLRKKGRKP, the protein stability index was determined as 2.58. EAGSRFVAFSGEGQSLRKKGRKP: the protein stability index was found to be 3.12. On to EAGHRFVAFSGEGQSLRKKGRKP, for which the protein stability index came out at 2.12. The same measure, in the same setting: the figure for EAGLRFVAFSGEGQSLRKKGRKP is 1.25; for EAGNRFVAFSGEGQSLRKKGRKP it is 1; for EAGQRFVAFSGEGQSLRKKGRKP it is 1.92. Same read-out and setting: the result for YAGGRFVAFSGEGQSLRKKGRKP reads 3.86; that for LAGGRFVAFSGEGQSLRKKGRKP, 1.92; that for CAGGRFVAFSGEGQSLRKKGRKP, 2.5.

As to GAGGRFVAFSGEGQSLRKKGRKP, the protein stability index was found to be 2.5. Same read-out and setting: the figure for TAGGRFVAFSGEGQSLRKKGRKP is 2.17; for DAGGRFVAFSGEGQSLRKKGRKP it is 2.33. Same read-out and setting: the result for ESGGRFVAFSGEGQSLRKKGRKP reads 1.82; that for ETGGRFVAFSGEGQSLRKKGRKP, 1.64; that for ENGGRFVAFSGEGQSLRKKGRKP, 1.23. Still for that read-out and setting: the result for EYGGRFVAFSGEGQSLRKKGRKP reads 2.35; that for EHGGRFVAFSGEGQSLRKKGRKP, 1.15; that for ERGGRFVAFSGEGQSLRKKGRKP, 1.1.

Consider EPGGRFVAFSGEGQSLRKKGRKP, for which the protein stability index was found to be 2.55. On the same count and under the same terms, the figure for EIGGRFVAFSGEGQSLRKKGRKP is 3; for EDGGRFVAFSGEGQSLRKKGRKP it is 3.92. The same measure, in the same setting: the figure for EATGRFVAFSGEGQSLRKKGRKP is 2.14; for EALGRFVAFSGEGQSLRKKGRKP it is 3.08. On to EACGRFVAFSGEGQSLRKKGRKP, for which the protein stability index amounted to 1.6. The same measure, in the same setting: the figure for EANGRFVAFSGEGQSLRKKGRKP is 1.63. EASGRFVAFSGEGQSLRKKGRKP: the protein stability index is 1.82.

For the variant EAPGRFVAFSGEGQSLRKKGRKP, the protein stability index turned out to be 1.24.

For EAEGRFVAFSGEGQSLRKKGRKP, the protein stability index is 2.71. On the same count and under the same terms, the result for EAQGRFVAFSGEGQSLRKKGRKP reads 2.16; that for EAWGRFVAFSGEGQSLRKKGRKP, 1.67. In the case of EADGRFVAFSGEGQSLRKKGRKP, the protein stability index was found to be 1.88. Take EAMGRFVAFSGEGQSLRKKGRKP: the protein stability index turned out to be 2.11. The same measure, in the same setting: the figure for EAGGAFVAFSGEGQSLRKKGRKP is 3.01.
